Experimental data published in article PMC10731240.

Tests used:
[1] = target: Leishmania tarentolae PNUTS, endogenously HA-tagged; assay: co-IP (anti-protein A affinity resin, Western blot band quantification); conditions: parent: 1; read off a plot
[2] = target: Leishmania tarentolae PNUTS, endogenously HA-tagged; assay: co-IP (PP1-8e-Pd pull-down, Western blot band quantification); conditions: parent: 1; read off a plot
[3] = target: LtPP1-8e 359 to 362A, Pd-tagged (Leishmania tarentolae); assay: co-IP; L. tarentolae cell extract; Pd-tagged PP1 (overexpressed from pSNSAP1) held on IgG Sepharose beads, 4 h at 4 °C, washed three times in PA-150 buffer; endogenously HA-tagged PNUTS detected by anti-HA Western blot; %IP relative to WT PP1-8e
[4] = target: LtPP1-8e 354–358A, Pd-tagged (Leishmania tarentolae); assay: as above
[5] = target: LtPP1-8e F305A, Pd-tagged (Leishmania tarentolae); assay: as above
[6] = target: LtPP1-8e with ^260LP^261 mutated to alanine, Pd-tagged (Leishmania tarentolae); assay: as above
[7] = target: LtPP1-8e with ^310DHK^312 mutated to alanine, Pd-tagged (Leishmania tarentolae); assay: as above
[8] = target: LtPP1-8e 263–265A, Pd-tagged (Leishmania tarentolae); assay: as above
[9] = target: LtPP1-8e D290A, Pd-tagged (Leishmania tarentolae); assay: as above
[10] = target: LtPP1-8e I360A, Pd-tagged (Leishmania tarentolae); assay: as above
[11] = target: LtPP1-8e CΔ11 (final 11 amino acids deleted), Pd-tagged (Leishmania tarentolae); assay: as above
[12] = target: LtPP1-8e 109–134Δ (26 amino acid insertion deleted), Pd-tagged (Leishmania tarentolae); assay: as above
[13] = target: LtPP1-8e CΔ23 (23 amino acid C-terminal extension deleted), Pd-tagged (Leishmania tarentolae); assay: as above
[14] = target: LtPP1-8e D292A, Pd-tagged (Leishmania tarentolae); assay: as above
[15] = target: LtPP1-8e I217A, Pd-tagged (Leishmania tarentolae); assay: as above
[16] = target: LtPP1-8e 109–114A (GGVFG to alanine), Pd-tagged (Leishmania tarentolae); assay: as above
[17] = target: LtPNUTS D101A, Pd-tagged (Leishmania tarentolae); assay: co-IP; L. tarentolae cell extract; Pd-tagged PNUTS (overexpressed from pSNSAP1) held on IgG Sepharose beads, 4 h at 4 °C, washed three times in PA-150 buffer; endogenously HA-tagged PP1-8e, JBP3 or Wdr82 detected by anti-HA Western blot; %IP relative to WT PNUTS
[18] = target: LtPNUTS L111A, Pd-tagged (Leishmania tarentolae); assay: as above
[19] = target: LtPNUTS V97A, Pd-tagged (Leishmania tarentolae); assay: as above
[20] = target: LtPNUTS R94A, Pd-tagged (Leishmania tarentolae); assay: as above
[21] = target: Leishmania tarentolae PP1-8e, endogenously HA-tagged; assay: co-IP (anti-protein A affinity resin, Western blot band quantification); conditions: parent: 1; read off a plot

## Leishmania tarentolae PP1-8e, Pd-tagged (WT) Y96A
[1]
  ratio to parent: 0.68

## Leishmania tarentolae PP1-8e, Pd-tagged (WT) D116A; K118A; K119A; R121A
[2]
  ratio to parent: 0.79

## Leishmania tarentolae PNUTS, endogenously HA-tagged (natural protein)
[3]
  percent reduction of co-IP against WT PP1-8e: 80%
[4]
  percent reduction of co-IP against WT PP1-8e: 50%
[5]
  percent reduction of co-IP against WT PP1-8e: 80%
[6]
  percent of co-IP lost against WT PP1-8e: 80%
[7]
  percent decrease of co-IP against WT PP1-8e: 20%
[8]
  percent reduction of co-IP against WT PP1-8e: 90%
[9]
  percent reduction of co-IP against WT PP1-8e: 50%
[10]
  percent reduction of co-IP against WT PP1-8e: 80%
[11]
  percent reduction of co-IP against WT PP1-8e: 30%
[12]
  percent reduction of co-IP against WT PP1-8e: 80%
[13]
  percent loss of co-IP against WT PP1-8e: 80%
[14]
  percent reduction of co-IP against WT PP1-8e: 60%
[15]
  percent reduction of co-IP against WT PP1-8e: 50%
[16]
  percent reduction of co-IP against WT PP1-8e: 80%

## Leishmania tarentolae PP1-8e, endogenously HA-tagged (enzyme)
[17]
  percent reduction of co-IP against WT PNUTS: 80%
[18]
  percent reduction of co-IP against WT PNUTS: 80%
[19]
  fold decrease of co-IP against WT PNUTS: 5 fold
[20]
  percent reduction of co-IP against WT PNUTS: 50%

## Leishmania tarentolae PP1-8e, Pd-tagged (WT) I346A
[1]
  ratio to parent: 0.025

## Leishmania tarentolae PP1-8e, Pd-tagged (WT) F307A
[1]
  ratio to parent: 0

## Leishmania tarentolae PNUTS, Pd-tagged (WT, full-length) F118A
[21]
  ratio to parent: 0.22

## Leishmania tarentolae PNUTS, Pd-tagged (WT, full-length) K95A
[21]
  ratio to parent: 1

## Leishmania tarentolae PNUTS, Pd-tagged (WT, full-length) R125A
[21]
  ratio to parent: 0.92

## Leishmania tarentolae PNUTS, Pd-tagged (WT, full-length) W99A
[21]
  ratio to parent: 0.08

## Leishmania tarentolae PNUTS, Pd-tagged (WT, full-length) H114A; V115A
[21]
  ratio to parent: 0.17

## Leishmania tarentolae PP1-8e, Pd-tagged (WT) T348A
[1]
  ratio to parent: 0.82

## Leishmania tarentolae PP1-8e, Pd-tagged (WT) R314A
[1]
  ratio to parent: 0.01

## Leishmania tarentolae PP1-8e, Pd-tagged (WT) D265A
[2]
  ratio to parent: 0.51

## Leishmania tarentolae PP1-8e, Pd-tagged (WT) S126A; D129A; D130A; Y133A; S134A
[2]
  ratio to parent: 0.84
